The values below come from US20070224188A1.

The assay has as its target biotin-labeled soluble FcRn. As to the kind of experiment: FcRn ELISA pH 6.0.

The substance anti-CD20 IgG1 P343I (antibody) yielded a FcRn pH6.0 (% of wild type) of 114.
Then anti-CD20 IgG1 P343K (antibody), with 232; and anti-CD20 IgG1 P343L (antibody), with 125.
Consider anti-CD20 IgG1 P343M (antibody), for which the FcRn pH6.0 (% of wild type) turned out to be 83.
The substance anti-CD20 IgG1 P343N (antibody) registered a FcRn pH6.0 (% of wild type) of 105.
In turn, anti-CD20 IgG1 P343Q (antibody) yielded a FcRn pH6.0 (% of wild type) of 442.
Substance anti-CD20 IgG1 P343R (antibody) gave a FcRn pH6.0 (% of wild type) of 198.
Then anti-CD20 IgG1 P343S (antibody), with 101; and anti-CD20 IgG1 P343T (antibody), with 126; and anti-CD20 IgG1 P343V (antibody), with 77.
With anti-CD20 IgG1 P343W (antibody) the figure was 56; with anti-CD20 IgG1 P343Y (antibody), 112; with anti-CD20 IgG1 Q311A (antibody), 139.
Then anti-CD20 IgG1 Q311D (antibody), with 38; and anti-CD20 IgG1 Q311E (antibody), with 46; and anti-CD20 IgG1 Q311F (antibody), with 64.
Turning to anti-CD20 IgG1 Q311G (antibody), the FcRn pH6.0 (% of wild type) was 58.
Turning to anti-CD20 IgG1 Q311I (antibody), the FcRn pH6.0 (% of wild type) turned out to be 437.
As for anti-CD20 IgG1 Q311K (antibody), the FcRn pH6.0 (% of wild type) is 165.
Then anti-CD20 IgG1 Q311L (antibody), with 186; and anti-CD20 IgG1 Q311M (antibody), with 387.
With anti-CD20 IgG1 Q311N (antibody) the figure was 54; with anti-CD20 IgG1 Q311P (antibody), 89.
With anti-CD20 IgG1 Q311R (antibody) the figure was 14.
In turn, anti-CD20 IgG1 Q311S (antibody) displayed a FcRn pH6.0 (% of wild type) of 97.
For anti-CD20 IgG1 Q311T (antibody), the FcRn pH6.0 (% of wild type) was 131.
As to anti-CD20 IgG1 Q311V (antibody), the FcRn pH6.0 (% of wild type) came to 558.
Then anti-CD20 IgG1 Q311W (antibody), with 215.
Substance anti-CD20 IgG1 Q311Y (antibody) had a FcRn pH6.0 (% of wild type) of 94.
With anti-CD20 IgG1 Q386K (antibody) the figure was 115; with anti-CD20 IgG1 Q438G (antibody), 98.
Then anti-CD20 IgG1 Q438K (antibody), with 169; and anti-CD20 IgG1 Q438L (antibody), with 200.
anti-CD20 IgG1 Q438T (antibody) showed a FcRn pH6.0 (% of wild type) of 126.
In turn, anti-CD20 IgG1 Q438W (antibody) came in with a FcRn pH6.0 (% of wild type) of 164.
Then anti-CD20 IgG1 R255K (antibody), with 41.
Then anti-CD20 IgG1 R255N (antibody), with 27; and anti-CD20 IgG1 R292A (antibody), with 85.
On to anti-CD20 IgG1 R292E (antibody), for which the FcRn pH6.0 (% of wild type) was determined as 65.
Then anti-CD20 IgG1 R292F (antibody), with 64; and anti-CD20 IgG1 R292G (antibody), with 60.
With anti-CD20 IgG1 R292I (antibody) the figure was 56; with anti-CD20 IgG1 R292L (antibody), 68; with anti-CD20 IgG1 R301W (antibody), 119.
With anti-CD20 IgG1 S254A (antibody) the figure was 7; with anti-CD20 IgG1 S254D (antibody), 7; with anti-CD20 IgG1 S254E (antibody), 6.
In the case of anti-CD20 IgG1 S254F (antibody), the FcRn pH6.0 (% of wild type) was 0.
With anti-CD20 IgG1 S254G (antibody) the figure was 7.
Then anti-CD20 IgG1 S254H (antibody), with 0; and anti-CD20 IgG1 S254I (antibody), with 25.
With anti-CD20 IgG1 S254K (antibody) the figure was 9.
In turn, anti-CD20 IgG1 S254L (antibody) came in with a FcRn pH6.0 (% of wild type) of 74.
In turn, anti-CD20 IgG1 S254M (antibody) yielded a FcRn pH6.0 (% of wild type) of 0.
For the substance anti-CD20 IgG1 S254N (antibody), the FcRn pH6.0 (% of wild type) was found to be 8.
Then anti-CD20 IgG1 S254P (antibody), with 3; and anti-CD20 IgG1 S254Q (antibody), with 9.
With anti-CD20 IgG1 S254R (antibody), the FcRn pH6.0 (% of wild type) stood at 14.
With anti-CD20 IgG1 S254T (antibody) the figure was 32.
Substance anti-CD20 IgG1 S254V (antibody) returned a FcRn pH6.0 (% of wild type) of 31.
Then anti-CD20 IgG1 S254W (antibody), with 0; and anti-CD20 IgG1 S254Y (antibody), with 0.
Substance anti-CD20 IgG1 S267G (antibody) came in with a FcRn pH6.0 (% of wild type) of 86.
Then anti-CD20 IgG1 S267H (antibody), with 86; and anti-CD20 IgG1 S267I (antibody), with 83.
Then anti-CD20 IgG1 S267K (antibody), with 102; and anti-CD20 IgG1 S304E (antibody), with 101.
With anti-CD20 IgG1 S375R (antibody) the figure was 595.
The substance anti-CD20 IgG1 S424H (antibody) came in with a FcRn pH6.0 (% of wild type) of 97.
In turn, anti-CD20 IgG1 S424M (antibody) displayed a FcRn pH6.0 (% of wild type) of 60.
Consider anti-CD20 IgG1 S424V (antibody), for which the FcRn pH6.0 (% of wild type) amounted to 57.
In turn, anti-CD20 IgG1 S426D (antibody) displayed a FcRn pH6.0 (% of wild type) of 65.
With anti-CD20 IgG1 S426L (antibody) the figure was 117.
The substance anti-CD20 IgG1 S440A (antibody) gave a FcRn pH6.0 (% of wild type) of 82.
Then anti-CD20 IgG1 S440D (antibody), with 72; and anti-CD20 IgG1 S440E (antibody), with 73; and anti-CD20 IgG1 S440F (antibody), with 87.
With anti-CD20 IgG1 S440G (antibody), the FcRn pH6.0 (% of wild type) was 101.
Then anti-CD20 IgG1 S440H (antibody), with 110.
With anti-CD20 IgG1 S440I (antibody) the figure was 96; with anti-CD20 IgG1 S440K (antibody), 132.
With anti-CD20 IgG1 S440L (antibody) the figure was 126; with anti-CD20 IgG1 S440M (antibody), 80.
Consider anti-CD20 IgG1 S440N (antibody), for which the FcRn pH6.0 (% of wild type) worked out at 82.
Then anti-CD20 IgG1 S440Q (antibody), with 81.
anti-CD20 IgG1 S440R (antibody) gave a FcRn pH6.0 (% of wild type) of 88.
Substance anti-CD20 IgG1 S440T (antibody) had a FcRn pH6.0 (% of wild type) of 71.
Then anti-CD20 IgG1 S440V (antibody), with 98; and anti-CD20 IgG1 S440W (antibody), with 85.
Then anti-CD20 IgG1 S440Y (antibody), with 100.
Regarding anti-CD20 IgG1 S442K (antibody), the FcRn pH6.0 (% of wild type) turned out to be 138.
Then anti-CD20 IgG1 T250K (antibody), with 96.
Then anti-CD20 IgG1 T250M (antibody), with 165; and anti-CD20 IgG1 T250R (antibody), with 62; and anti-CD20 IgG1 T256A (antibody), with 160.
Then anti-CD20 IgG1 T256D (antibody), with 544.
In the case of anti-CD20 IgG1 T256E (antibody), the FcRn pH6.0 (% of wild type) worked out at 339.
Then anti-CD20 IgG1 T256F (antibody), with 5; and anti-CD20 IgG1 T256G (antibody), with 162; and anti-CD20 IgG1 T256H (antibody), with 26.
The substance anti-CD20 IgG1 T256I (antibody) returned a FcRn pH6.0 (% of wild type) of 72.
With anti-CD20 IgG1 T256K (antibody) the figure was 31.
For anti-CD20 IgG1 T256L (antibody), the FcRn pH6.0 (% of wild type) is 78.
Turning to anti-CD20 IgG1 T256M (antibody), the FcRn pH6.0 (% of wild type) was found to be 35.
Then anti-CD20 IgG1 T256N (antibody), with 229; and anti-CD20 IgG1 T256P (antibody), with 190.
For the substance anti-CD20 IgG1 T256Q (antibody), the FcRn pH6.0 (% of wild type) amounted to 64.
Then anti-CD20 IgG1 T256R (antibody), with 33.
With anti-CD20 IgG1 T256S (antibody) the figure was 169; with anti-CD20 IgG1 T256V (antibody), 114.
